78 sequences from the supplement of paper PMC7877785 can be followed below.

± gives the uncertainty stated by the source.

This data set in a line: self-splicing fitness, log relative to wild type (ln ratio); higher = more splicing; Tetrahymena group I intron in knt gene, E. coli kanamycin selection, DiMSum; sequences stand for … in CUCUCU…GGAGGGAAAAGUUAUCAGGCAUGCACCUGGUAGCUAGUCUUUAAACCAAUAGAUUGCAUCGGUUUAAAAGGCAAGACCGUCAAAUUGCGGGAAAGGGGUCAACAGCCGUUCAGUACCAAGUCUCAGGGGAAACUUUGAGAUGGCCUUGCAAAGGGUAUGGUAAUAAGCUGACGGACAUGGUCCUAACCACGCAGCCAAGUCCUAAGUCAACAGAUCUUCUGUUGAUAUGGAUGCAGUUCACAGACUAAAUGUCGGUCGGGGAAGAUGUAUUCUUCUCAUAAGAUAUAGUCGGACCUCUCCUUAAUGGGAGCUAGCGGAUGAAGUGAUGCAACACUGGAGCCGCUGGGAACUAAUUUGUAUGCGAAAGUAUAUUGAUUAGUUUUGGAGUACUCGUGGUCG
Summed up: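 Library with all eight P1ex-region intron nucleotides randomised, intron inside the knt kanamycin-resistance gene on pET-22b(+), in E. coli BL21(DE3). Cells grew overnight at 37°C or 30°C on LB agar with or without 25 μg/mL kanamycin (plus 100 μg/mL carbenicillin, 50 μM IPTG, 0.2% rhamnose), in six replicate transformations. Pooled colonies were amplicon-sequenced on Illumina HiSeq 2500. DiMSum fitness is the error-weighted combination of wild-type-normalised replicate fold changes, kanamycin versus none.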

With CCGGAGCAAUAUUACGCUGC, the “self-splicing fitness (ln)” value (37 °C) was -2.04 ± 0.38.
CCGGAGCAAUAUUACGCUUC: the “self-splicing fitness (ln)” value reads like this: (30 °C) -2.55 ± 0.24; (37 °C) -0.412 ± 0.19.
For CCGGAGCAAUAUUACGGAAU the same measures were -2.95 ± 0.26 and -2.96 ± 0.25.
In the case of CCGGAGCAAUAUUACGGACU, the “self-splicing fitness (ln)” value (37 °C) was -1.56 ± 0.28.
CCGGAGCAAUAUUACGGAUG: the “self-splicing fitness (ln)” value is, setting by setting: (30 °C) -2.78 ± 0.22; (37 °C) -1.92 ± 0.23.
For CCGGAGCAAUAUUACGGCGU the same measures were -4.4 ± 0.46 and -2.84 ± 0.26.
For the sequence CCGGAGCAAUAUUACGGCUA, where the note is “37 °C”, the “self-splicing fitness (ln)” value was -0.58 ± 0.2.
For the sequence CCGGAGCAAUAUUACGGCUC, the “self-splicing fitness (ln)” value (37 °C) was -2.08 ± 0.37.
Regarding CCGGAGCAAUAUUACGGGUG, the “self-splicing fitness (ln)” value is -1.61 ± 0.093 (30 °C) and -1.09 ± 0.1 (37 °C).
Take CCGGAGCAAUAUUACGGUGA: the “self-splicing fitness (ln)” value was -3.8 ± 0.31 (30 °C) and -2.29 ± 0.23 (37 °C).
Turning to CCGGAGCAAUAUUACGUACC, for the setting “37 °C”, the “self-splicing fitness (ln)” value was -0.504 ± 0.41.
On the same count and under the same terms, under CCGGAGCAAUAUUACGUAUC stands -2.58 ± 0.29; under CCGGAGCAAUAUUACGUAUU, -1.05 ± 0.21.
On to CCGGAGCAAUAUUACGUCAU, for which the “self-splicing fitness (ln)” value runs as follows: (30 °C) -4 ± 0.24; (37 °C) -2.48 ± 0.21.
For the sequence CCGGAGCAAUAUUACGUCUA, for the setting “37 °C”, the “self-splicing fitness (ln)” value is -1.85 ± 0.33.
Turning to CCGGAGCAAUAUUACGUGUA, the “self-splicing fitness (ln)” value reads like this: (30 °C) -2.99 ± 0.2; (37 °C) -2.61 ± 0.25.
The corresponding values for CCGUAGCAAUAUUACGAACU are -3.64 ± 0.47 and -1.14 ± 0.28.
Take CCGUAGCAAUAUUACGACGC: where the note is “37 °C”, the “self-splicing fitness (ln)” value is -3.08 ± 0.38.
For the sequence CCGUAGCAAUAUUACGACGU, the “self-splicing fitness (ln)” value was -0.571 ± 0.075 (30 °C) and -0.205 ± 0.088 (37 °C).
CCGUAGCAAUAUUACGAUCA: the “self-splicing fitness (ln)” value (30 °C) is -2.86 ± 0.32 and the “self-splicing fitness (ln)” value (37 °C) is -2.34 ± 0.35.
The corresponding values for CCGUAGCAAUAUUACGAUGC are -4.08 ± 0.36 and -1.39 ± 0.23.
For CCGUAGCAAUAUUACGCACG the same measures were -2.02 ± 0.096 and -1.53 ± 0.13.
Take CCGUAGCAAUAUUACGCCAC: the “self-splicing fitness (ln)” value was -1.95 ± 0.22 (30 °C) and -1.78 ± 0.33 (37 °C).
On to CCGUAGCAAUAUUACGCGUU, for which the “self-splicing fitness (ln)” value by setting is: (30 °C) -4.15 ± 0.39; (37 °C) -2.86 ± 0.31.
For CCGUAGCAAUAUUACGGAAG the same measures were -1.47 ± 0.17 and -2.34 ± 0.41.
CCGUAGCAAUAUUACGGAAU: the “self-splicing fitness (ln)” value reads like this: (30 °C) -3.73 ± 0.3; (37 °C) -1.92 ± 0.32.
CCGUAGCAAUAUUACGGACU: the “self-splicing fitness (ln)” value (30 °C) is -4.02 ± 0.22 and the “self-splicing fitness (ln)” value (37 °C) is -2.54 ± 0.2.
The corresponding values for CCGUAGCAAUAUUACGGAGG are -3.6 ± 0.17 and -3.34 ± 0.25.
In the case of CCGUAGCAAUAUUACGUAUG, the “self-splicing fitness (ln)” value reads like this: (30 °C) -0.772 ± 0.082; (37 °C) 0.203 ± 0.12.
With CCGUAGCAAUAUUACGUCCA, the “self-splicing fitness (ln)” value was -2.27 ± 0.28 (30 °C) and -3.26 ± 0.28 (37 °C).
For CCGUAGCAAUAUUACGUCGU the same measures were -3.2 ± 0.18 and -1.25 ± 0.16.
Consider CCGUAGCAAUAUUACGUGCA, for which the “self-splicing fitness (ln)” value by setting is: (30 °C) -3.06 ± 0.21; (37 °C) -2.88 ± 0.15.
For the sequence CCGUAGCAAUAUUACGUGCC, the “self-splicing fitness (ln)” value (30 °C) is -4.11 ± 0.47 and the “self-splicing fitness (ln)” value (37 °C) was -2.33 ± 0.28.
For CCGUAGCAAUAUUACGUUGA the same measures were -2.67 ± 0.33 and -3.13 ± 0.29.
The corresponding values for CCUAAGCAAUAUUACGACAG are -0.604 ± 0.081 and -1 ± 0.11.
Regarding CCUAAGCAAUAUUACGACCG, the “self-splicing fitness (ln)” value reads like this: (30 °C) -1.24 ± 0.14; (37 °C) -0.121 ± 0.13.
As for CCUAAGCAAUAUUACGAUCG, the “self-splicing fitness (ln)” value runs as follows: (30 °C) -0.805 ± 0.15; (37 °C) -0.185 ± 0.17.
The corresponding values for CCUAAGCAAUAUUACGAUUA are -3.04 ± 0.19 and -2.62 ± 0.22.
The corresponding values for CCUAAGCAAUAUUACGCAUA are -4.08 ± 0.28 and -2.77 ± 0.27.
The corresponding values for CCUAAGCAAUAUUACGCAUC are -2.22 ± 0.13 and -1.91 ± 0.13.
On to CCUAAGCAAUAUUACGCCGU, for which the “self-splicing fitness (ln)” value is -2.92 ± 0.19 (30 °C) and -3.22 ± 0.29 (37 °C).
Take CCUAAGCAAUAUUACGCGAA: the “self-splicing fitness (ln)” value reads like this: (30 °C) -2.23 ± 0.22; (37 °C) -2.61 ± 0.29.
In the case of CCUAAGCAAUAUUACGCGAC, the “self-splicing fitness (ln)” value by setting is: (30 °C) -2.41 ± 0.3; (37 °C) -3.61 ± 0.39.
For CCUAAGCAAUAUUACGCUGA the same measures were -2.63 ± 0.21 and -1.96 ± 0.32.
Take CCUAAGCAAUAUUACGGCAC: the “self-splicing fitness (ln)” value reads like this: (30 °C) -3.72 ± 0.25; (37 °C) -2.62 ± 0.28.
As to CCUAAGCAAUAUUACGGUUC, the “self-splicing fitness (ln)” value (30 °C) is -3.88 ± 0.23 and the “self-splicing fitness (ln)” value (37 °C) is -2.59 ± 0.22.
The corresponding values for CCUAAGCAAUAUUACGUAGA are -1.33 ± 0.08 and -0.523 ± 0.1.
The corresponding values for CCUAAGCAAUAUUACGUAGC are -4.03 ± 0.34 and -2.21 ± 0.23.
For the sequence CCUAAGCAAUAUUACGUAUA, the “self-splicing fitness (ln)” value (30 °C) was -3 ± 0.15 and the “self-splicing fitness (ln)” value (37 °C) is -2.67 ± 0.17.
For CCUAAGCAAUAUUACGUCCU the same measures were -3.74 ± 0.33 and -2.04 ± 0.24.
Consider CCUAAGCAAUAUUACGUUCC, for which the “self-splicing fitness (ln)” value (30 °C) was -3.6 ± 0.3 and the “self-splicing fitness (ln)” value (37 °C) is -1.8 ± 0.34.
For CCUAAGCAAUAUUACGUUGG the same measures were -3.45 ± 0.27 and -2.96 ± 0.24.
The corresponding values for CCUCAGCAAUAUUACGAAAU are -3.99 ± 0.28 and -2.15 ± 0.34.
For CCUCAGCAAUAUUACGAAGA the same measures were -3.71 ± 0.3 and -2.31 ± 0.25.
Regarding CCUCAGCAAUAUUACGACAC, the “self-splicing fitness (ln)” value runs as follows: (30 °C) -4.04 ± 0.28; (37 °C) -2.5 ± 0.29.
The corresponding values for CCUCAGCAAUAUUACGACUA are -3.2 ± 0.43 and -3.06 ± 0.32.
As to CCUCAGCAAUAUUACGAGAC, the “self-splicing fitness (ln)” value is, setting by setting: (30 °C) -3.31 ± 0.32; (37 °C) -2.88 ± 0.35.
For CCUCAGCAAUAUUACGAUAC, the “self-splicing fitness (ln)” value runs as follows: (30 °C) -3.21 ± 0.26; (37 °C) -3.08 ± 0.47.
CCUCAGCAAUAUUACGCAGC: the “self-splicing fitness (ln)” value is -3.42 ± 0.14 (30 °C) and -2.49 ± 0.17 (37 °C).
For the sequence CCUCAGCAAUAUUACGCAGG, the “self-splicing fitness (ln)” value runs as follows: (30 °C) -3.84 ± 0.25; (37 °C) -2.5 ± 0.3.
The corresponding values for CCUCAGCAAUAUUACGCCGG are -3.32 ± 0.21 and -0.587 ± 0.15.
For CCUCAGCAAUAUUACGCCGU the same measures were -3.05 ± 0.23 and -2.08 ± 0.25.
For CCUCAGCAAUAUUACGCGAG the same measures were -2.89 ± 0.1 and -1.76 ± 0.11.
In the case of CCUCAGCAAUAUUACGCGUA, the “self-splicing fitness (ln)” value is, setting by setting: (30 °C) -2.71 ± 0.21; (37 °C) -3.37 ± 0.28.
In the case of CCUCAGCAAUAUUACGGACA, the “self-splicing fitness (ln)” value by setting is: (30 °C) -3.54 ± 0.19; (37 °C) -3.15 ± 0.26.
For CCUCAGCAAUAUUACGGAUU the same measures were -4.3 ± 0.39 and -2.56 ± 0.22.
For the sequence CCUCAGCAAUAUUACGGUAC, the “self-splicing fitness (ln)” value (30 °C) was -4.96 ± 0.32 and the “self-splicing fitness (ln)” value (37 °C) is -2.26 ± 0.26.
The corresponding values for CCUCAGCAAUAUUACGUAAG are -0.219 ± 0.059 and 0.292 ± 0.082.
The corresponding values for CCUCAGCAAUAUUACGUACA are -3.73 ± 0.29 and -2.78 ± 0.34.
On to CCUCAGCAAUAUUACGUACC, for which the “self-splicing fitness (ln)” value by setting is: (30 °C) -4.27 ± 0.25; (37 °C) -3.42 ± 0.39.
For CCUCAGCAAUAUUACGUGAA the same measures were -3.66 ± 0.2 and -2.22 ± 0.2.
Regarding CCUCAGCAAUAUUACGUGUC, the “self-splicing fitness (ln)” value was -3.35 ± 0.13 (30 °C) and -2.48 ± 0.2 (37 °C).
For the sequence CCUGAGCAAUAUUACGACGU, the “self-splicing fitness (ln)” value (30 °C) is -2.28 ± 0.14 and the “self-splicing fitness (ln)” value (37 °C) was -0.0399 ± 0.14.
With CCUGAGCAAUAUUACGAGCU, where the note is “37 °C”, the “self-splicing fitness (ln)” value was -1.95 ± 0.42.
For the sequence CCUGAGCAAUAUUACGAGUC, where the note is “37 °C”, the “self-splicing fitness (ln)” value is -2.36 ± 0.34.
Consider CCUGAGCAAUAUUACGAGUG, for which the “self-splicing fitness (ln)” value reads like this: (30 °C) -1.44 ± 0.097; (37 °C) -0.572 ± 0.12.
Regarding CCUGAGCAAUAUUACGCAUG, the “self-splicing fitness (ln)” value runs as follows: (30 °C) -4.37 ± 0.34; (37 °C) -2.27 ± 0.28.
For CCUGAGCAAUAUUACGCGGC the same measures were -3.57 ± 0.2 and -2.55 ± 0.22.
